In article PMC9482650, “Quantitative fragmentomics allow affinity mapping of interactomes” (Nature Communications, 2022):

T1: DFNB31_1, Q9P202
T1 sequence (Q9P202 135-233, limits assumed, looked up): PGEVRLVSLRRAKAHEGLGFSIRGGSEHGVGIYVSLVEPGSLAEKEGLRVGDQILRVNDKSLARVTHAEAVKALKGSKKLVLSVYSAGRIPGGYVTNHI

T2: DLG3_2, Q92796
T2 sequence (Q92796 221-321, limits assumed, looked up): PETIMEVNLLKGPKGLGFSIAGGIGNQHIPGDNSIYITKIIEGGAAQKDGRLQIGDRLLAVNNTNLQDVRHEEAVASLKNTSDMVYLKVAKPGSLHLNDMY

T3: MPDZ_5, O75970
T3 sequence (O75970 695-796, limits assumed, looked up): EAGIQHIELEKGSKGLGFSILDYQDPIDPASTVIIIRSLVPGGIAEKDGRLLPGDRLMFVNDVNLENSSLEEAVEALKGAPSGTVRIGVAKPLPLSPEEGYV

T4: RHPN1, Q8TCX5
T4 sequence (Q8TCX5 508-602, limits assumed, looked up): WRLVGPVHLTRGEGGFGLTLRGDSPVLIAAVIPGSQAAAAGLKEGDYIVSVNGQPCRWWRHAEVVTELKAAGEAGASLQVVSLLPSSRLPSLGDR

T5: CARD11, Q9BXL7
T5 sequence (Q9BXL7 662-765, limits assumed, looked up): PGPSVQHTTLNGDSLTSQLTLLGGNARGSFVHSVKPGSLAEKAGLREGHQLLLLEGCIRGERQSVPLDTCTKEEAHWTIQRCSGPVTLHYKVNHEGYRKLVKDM

T6: MPP7, Q5T2T1
T6 sequence (Q5T2T1 134-230, limits assumed, looked up): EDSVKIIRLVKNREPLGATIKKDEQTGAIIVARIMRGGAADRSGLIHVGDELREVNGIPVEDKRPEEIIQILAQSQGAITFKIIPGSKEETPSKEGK

T7: GRIP1_3, Q9Y3R0
T7 sequence (Q9Y3R0 247-346, limits assumed, looked up): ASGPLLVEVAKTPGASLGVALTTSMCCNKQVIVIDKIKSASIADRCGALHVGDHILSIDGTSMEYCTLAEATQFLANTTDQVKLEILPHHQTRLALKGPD

T8: RADIL, Q96JH8
T8 sequence (Q96JH8 971-1071, limits assumed, looked up): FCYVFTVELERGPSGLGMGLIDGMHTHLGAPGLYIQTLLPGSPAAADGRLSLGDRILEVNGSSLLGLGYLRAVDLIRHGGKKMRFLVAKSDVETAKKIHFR

T9: ARHGEF11, O15085
T9 sequence (O15085 42-136, limits assumed, looked up): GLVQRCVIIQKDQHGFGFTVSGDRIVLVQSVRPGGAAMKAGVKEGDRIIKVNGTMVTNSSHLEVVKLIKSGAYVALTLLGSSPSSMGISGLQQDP

T10: SIPA1L2, Q9P2F8
T10 sequence (Q9P2F8 945-1036, limits assumed, looked up): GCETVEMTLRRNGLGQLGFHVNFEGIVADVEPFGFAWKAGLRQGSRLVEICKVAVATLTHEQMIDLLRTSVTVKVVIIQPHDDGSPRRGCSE

T11: SYNJ2BP, P57105
T11 sequence (P57105 8-110, limits assumed, looked up): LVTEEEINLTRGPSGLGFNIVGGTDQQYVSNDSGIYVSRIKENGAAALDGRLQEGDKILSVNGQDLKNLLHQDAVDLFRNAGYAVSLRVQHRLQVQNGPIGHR

T12: LRRC7, Q96NW7
T12 sequence (Q96NW7 1440-1537, limits assumed, looked up): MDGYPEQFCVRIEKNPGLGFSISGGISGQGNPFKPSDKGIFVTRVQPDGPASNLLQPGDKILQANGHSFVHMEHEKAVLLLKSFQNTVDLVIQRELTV

T13: DLG3_3, Q92796
T13 sequence (Q92796 374-475, limits assumed, looked up): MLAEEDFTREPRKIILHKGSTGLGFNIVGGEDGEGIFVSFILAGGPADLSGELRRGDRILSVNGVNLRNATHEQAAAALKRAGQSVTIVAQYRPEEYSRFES


Columns and labels:
Assay in all cases: holdup assay
Parameters in all cases: key: below the threshold = too weak to quantify, mostly under pKd 3.1 to 4
Details in all cases: plain residues with an end cap or a label only (N-terminal biotin on a linker: ado-ado)
[1] = molecular target: T1, DFNB31_1, Q9P202
[2] = molecular target: Inadl_6, Q8NI35
Chain of Inadl_6, Q8NI35 (Q8NI35 1058-1167): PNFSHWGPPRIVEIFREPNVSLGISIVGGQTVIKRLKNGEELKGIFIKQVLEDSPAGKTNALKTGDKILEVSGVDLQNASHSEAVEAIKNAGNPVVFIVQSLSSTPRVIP

[3] = molecular target: GRIP2_6, Q9C0E4
Chain of GRIP2_6, Q9C0E4 (Q9C0E4 648-740): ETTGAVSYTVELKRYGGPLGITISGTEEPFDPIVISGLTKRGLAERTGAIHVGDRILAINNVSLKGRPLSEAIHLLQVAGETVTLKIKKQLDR

[4] = molecular target: T2, DLG3_2, Q92796
[5] = molecular target: T3, MPDZ_5, O75970
[6] = molecular target: NHERF4_2, Q86UT5
Chain of NHERF4_2, Q86UT5 (Q86UT5 220-308): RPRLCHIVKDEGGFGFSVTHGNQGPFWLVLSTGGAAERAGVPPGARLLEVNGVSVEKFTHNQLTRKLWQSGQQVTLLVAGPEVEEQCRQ

[7] = molecular target: GRIP2_5, Q9C0E4
Chain of GRIP2_5, Q9C0E4 (Q9C0E4 544-642): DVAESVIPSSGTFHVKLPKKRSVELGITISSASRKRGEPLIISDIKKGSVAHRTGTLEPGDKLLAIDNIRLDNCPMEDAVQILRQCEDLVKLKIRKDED

[8] = molecular target: T4, RHPN1, Q8TCX5
[9] = molecular target: ARHGEF12, Q9NZN5-2
Chain of ARHGEF12, Q9NZN5-2 (Q9NZN5 other isoform, or with tags, fused parts or gaps): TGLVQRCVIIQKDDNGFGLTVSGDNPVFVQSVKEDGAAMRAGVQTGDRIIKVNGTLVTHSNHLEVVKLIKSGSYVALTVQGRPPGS

[10] = molecular target: T5, CARD11, Q9BXL7
[11] = molecular target: T6, MPP7, Q5T2T1
[12] = molecular target: T7, GRIP1_3, Q9Y3R0
[13] = molecular target: T8, RADIL, Q96JH8
[14] = molecular target: T9, ARHGEF11, O15085
[15] = molecular target: T10, SIPA1L2, Q9P2F8
[16] = molecular target: SNX27, Q96L92
[17] = molecular target: T11, SYNJ2BP, P57105
[18] = molecular target: Inadl_1, Q8NI35
Chain of Inadl_1, Q8NI35 (Q8NI35 113-229): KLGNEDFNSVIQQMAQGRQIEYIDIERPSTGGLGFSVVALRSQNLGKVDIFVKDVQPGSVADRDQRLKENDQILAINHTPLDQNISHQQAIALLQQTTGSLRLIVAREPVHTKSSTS

[19] = molecular target: TJP1_3, Q07157
Chain of TJP1_3, Q07157 (Q07157 416-512): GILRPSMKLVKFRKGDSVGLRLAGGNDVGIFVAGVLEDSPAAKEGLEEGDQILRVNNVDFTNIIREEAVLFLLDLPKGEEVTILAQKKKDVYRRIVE

[20] = molecular target: MAGI2_2, Q86UL8
Chain of MAGI2_2, Q86UL8 (Q86UL8 410-522): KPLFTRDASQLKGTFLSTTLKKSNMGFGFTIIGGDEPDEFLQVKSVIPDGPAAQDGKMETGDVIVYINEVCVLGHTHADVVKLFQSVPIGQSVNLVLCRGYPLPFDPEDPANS

[21] = molecular target: T12, LRRC7, Q96NW7
[22] = molecular target: HTRA1, Q92743
Chain of HTRA1, Q92743 (Q92743 360-477): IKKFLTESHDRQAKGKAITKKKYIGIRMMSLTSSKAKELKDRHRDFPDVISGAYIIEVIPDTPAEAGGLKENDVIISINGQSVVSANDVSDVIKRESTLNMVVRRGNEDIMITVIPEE

[23] = molecular target: T13, DLG3_3, Q92796
[24] = molecular target: FRMPD2_3, Q68DX3
Chain of FRMPD2_3, Q68DX3 (Q68DX3 1073-1166): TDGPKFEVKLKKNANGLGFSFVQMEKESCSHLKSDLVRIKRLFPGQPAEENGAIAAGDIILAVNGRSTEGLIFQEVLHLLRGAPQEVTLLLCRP

pKd [1]	pKd [2]	pKd [3]	pKd [4]	pKd [5]	pKd [6]	pKd [7]	pKd [8]	pKd [9]	pKd [10]	pKd [11]	pKd [12]	pKd [13]	pKd [14]	pKd [15]	pKd [16]	pKd [17]	pKd [18]	pKd [19]	pKd [20]	Binder	also measured
3.52	below the threshold	3.54	4.69	below the threshold	below the threshold	below the threshold	3.91	4.44	below the threshold	below the threshold	below the threshold	3.9	4.19	below the threshold	3.85	4.61	below the threshold	below the threshold	5.49	RFQQRMQTHV [KIRREL1, Q96J84]	pKd [21]: below the threshold; pKd [22]: below the threshold; pKd [23]: 3.94; pKd [24]: below the threshold
3.79	3.72	below the threshold	4.07	below the threshold	below the threshold	below the threshold	4.76	4.14	below the threshold	below the threshold	below the threshold	5.17	3.72	below the threshold	4.38	4.72	below the threshold	below the threshold	3.5	APIAGFSSFV [SDK2, Q58EX2]	pKd [21]: 3.65; pKd [22]: 4.51; pKd [23]: below the threshold; pKd [24]: below the threshold
below the threshold	below the threshold	below the threshold	4.17	below the threshold	below the threshold	below the threshold	4.4	below the threshold	below the threshold	below the threshold	below the threshold	below the threshold	below the threshold	below the threshold	5.39	below the threshold	below the threshold	below the threshold	below the threshold	EDPRVEVTQF [SLC22A9, Q8IVM8]	pKd [21]: below the threshold; pKd [22]: 3.49; pKd [23]: below the threshold; pKd [24]: below the threshold
below the threshold	below the threshold	below the threshold	below the threshold	below the threshold	below the threshold	below the threshold	below the threshold	below the threshold	below the threshold	below the threshold	below the threshold	below the threshold	below the threshold	below the threshold	below the threshold	below the threshold	below the threshold	below the threshold	below the threshold	LAHVKHKEQI [AQP3, Q92482]	pKd [21]: below the threshold; pKd [22]: below the threshold; pKd [23]: below the threshold; pKd [24]: below the threshold
